Laboratory results published in paper PMC6381110, “Allosteric enhancement of ORP1-mediated cholesterol transport by PI(4,5)P2/PI(3,4)P2” (Nature Communications, 2019).
“And” between values parts separate entries of the source, which are not always exact repeats. Equal values may be shown once.

Experiments:
[1] = biological target: the molecule itself; experiment: crystal structure; ORP1-ORD (524-950) with cholesterol, hanging drop 18 °C, 0.1 M NaAc pH 4.6, 2.0 M Na formate; oligomer by crystal symmetry
[2] = biological target: the molecule itself; experiment: SEC; Superdex-200 10/300, 10 mM Tris-HCl pH 8.0, 150 mM NaCl, 2 mM DTT; ORP1-ORD 5 uM alone or with cholesterol (free or in liposomes, 4:1); cholesterol shifts the protein towards monomer
[3] = biological target: the molecule itself; experiment: crystal structure; ORP1-ORD (534-950) with cholesterol, hanging drop 18 °C, 0.1 M Na cacodylate pH 6.2, 1.2 M Na citrate; oligomer by crystal symmetry

B1: ORP1-ORD (residues 524-950) (domain or fragment, human, UniProt Q9BXW6 524-950, looked up)
chain: DALSNGIKKHRTSLPSPMFSRNDFSIWSILRKCIGMELSKITMPVIFNEPLSFLQRLTEYMEHTYLIHKASSLSDPVERMQCVAAFAVSAVASQWERTGKPFNPLLGETYELVRDDLGFRLISEQVSHHPPISAFHAEGLNNDFIFHGSIYPKLKFWGKSVEAEPKGTITLELLEHNEAYTWTNPTCCVHNIIVGKLWIEQYGNVEIINHKTGDKCVLNFKPCGLFGKELHKVEGYIQDKSKKKLCALYGKWTECLYSVDPATFDAYKKNDKKNTEEKKNSKQMSTSEELDEMPVPDSESVFIIPGSVLLWRIAPRPPNSAQMYNFTSFAMVLNEVDKDMESVIPKTDCRLRPDIRAMENGEIDQASEEKKRLEEKQRAARKNRSKSEEDWKTRWFHQGPNPYNGAQDWIYSGSYWDRNYFNLPDIY
notes: OSBP-related domain (ORD) of human ORP1, residues 524-950 on ORP1L (1-950) numbering; Crystallised with cholesterol and with PI(4,5)P2; also called ORP1-ORD (524-950); source: E. coli Rosetta(DE3), purified (Ni-NTA, ion exchange, gel filtration)
stoichiometry N [1]: 3

B2: ORP1S (ORP1-ORD, residues 514-950) (natural protein, human, UniProt Q9BXW6 514-950, looked up)
chain: MSEEKDCGGGDALSNGIKKHRTSLPSPMFSRNDFSIWSILRKCIGMELSKITMPVIFNEPLSFLQRLTEYMEHTYLIHKASSLSDPVERMQCVAAFAVSAVASQWERTGKPFNPLLGETYELVRDDLGFRLISEQVSHHPPISAFHAEGLNNDFIFHGSIYPKLKFWGKSVEAEPKGTITLELLEHNEAYTWTNPTCCVHNIIVGKLWIEQYGNVEIINHKTGDKCVLNFKPCGLFGKELHKVEGYIQDKSKKKLCALYGKWTECLYSVDPATFDAYKKNDKKNTEEKKNSKQMSTSEELDEMPVPDSESVFIIPGSVLLWRIAPRPPNSAQMYNFTSFAMVLNEVDKDMESVIPKTDCRLRPDIRAMENGEIDQASEEKKRLEEKQRAARKNRSKSEEDWKTRWFHQGPNPYNGAQDWIYSGSYWDRNYFNLPDIY
notes: ORP1S, the short isoform encoded by human OSBPL1A, residues 514-950 on the numbering of the long isoform ORP1L (1-950); holds only the ORD; pET21b construct; In gel filtration it is a mixture of monomers, dimers and trimers; also called short isoform of OSBPL1A; source: E. coli Rosetta(DE3), purified (Ni-NTA, ion exchange, gel filtration)
stoichiometry N [2]: 2 and 3

B3: ORP1-ORD (residues 534-950) (domain or fragment, human, UniProt Q9BXW6 534-950, looked up)
chain: RTSLPSPMFSRNDFSIWSILRKCIGMELSKITMPVIFNEPLSFLQRLTEYMEHTYLIHKASSLSDPVERMQCVAAFAVSAVASQWERTGKPFNPLLGETYELVRDDLGFRLISEQVSHHPPISAFHAEGLNNDFIFHGSIYPKLKFWGKSVEAEPKGTITLELLEHNEAYTWTNPTCCVHNIIVGKLWIEQYGNVEIINHKTGDKCVLNFKPCGLFGKELHKVEGYIQDKSKKKLCALYGKWTECLYSVDPATFDAYKKNDKKNTEEKKNSKQMSTSEELDEMPVPDSESVFIIPGSVLLWRIAPRPPNSAQMYNFTSFAMVLNEVDKDMESVIPKTDCRLRPDIRAMENGEIDQASEEKKRLEEKQRAARKNRSKSEEDWKTRWFHQGPNPYNGAQDWIYSGSYWDRNYFNLPDIY
notes: OSBP-related domain (ORD) of human ORP1, residues 534-950 on ORP1L (1-950) numbering; Crystallised with cholesterol from Na cacodylate; also called ORP1-ORD (534-950); ORP1S lacking the N-terminal 20 amino acids; source: E. coli Rosetta(DE3), purified (Ni-NTA, ion exchange, gel filtration)
stoichiometry N [3]: 2
